{"source": "paper PMC10138348", "about": "“Continuous Fluorescent Sirtuin Activity Assay Based on Fatty Acylated Lysines” (International Journal of Molecular Sciences, 2023)", "key": {"[1]": {"target": "F4, TNFα-derived peptide with a myristoylated lysine and fluorescein-labelled cysteine in the +2 position", "experiment": "fluorescence polarisation; BSA in serial dilution from 752 µM, labelled peptide fixed; 384-well plate, 20 mM Tris-HCl pH 7.8, 150 mM NaCl, 5 mM MgCl2; three independent replicates"}, "[2]": {"target": "F6, deacylated fluorescein-labelled peptide product of F4 (fluorophore in +2 position)", "experiment": "fluorescence polarisation; BSA in serial dilution from 752 µM, labelled peptide fixed; 384-well plate, 20 mM Tris-HCl pH 7.8, 150 mM NaCl, 5 mM MgCl2; three independent replicates"}, "[3]": {"target": "F4, TNFα-derived peptide with a myristoylated lysine and fluorescein-labelled cysteine in the +2 position", "experiment": "other fluorescence titration; fluorescence spectra of the labelled peptide with increasing concentrations of BSA; excitation 490 nm, relative intensity at 517 nm against BSA concentration; n = 1"}, "[4]": {"target": "F6, deacylated fluorescein-labelled peptide product of F4 (fluorophore in +2 position)", "experiment": "other fluorescence titration; fluorescence spectra of the labelled peptide with increasing concentrations of BSA; excitation 490 nm, relative intensity at 517 nm against BSA concentration; n = 1"}}}
{"substance": "bovine serum albumin (from UniProt P02769 25-607) (natural protein)", "values": [{"measurement": "Kd", "setting": "[1]", "value": 1600, "unit": "nM"}, {"measurement": "fold KD against the F4/BSA complex", "setting": "[2]", "value": "> 100", "unit": "fold"}, {"measurement": "Kd", "setting": "[3]", "value": 1200, "unit": "nM"}, {"measurement": "fold KD against the F4/BSA complex", "setting": "[4]", "value": "> 100", "unit": "fold"}]}
